Measured values as given in US20190167709A1.

Molecular target: CD20 (B-cell surface antigen CD20 on human Burkitt's B-cell non-Hodgkin's lymphoma Raji cells) (human) (UniProt P11836)
Assay: cell-based or functional assay

Sequence of UniProt P11836 (P11836 whole entry): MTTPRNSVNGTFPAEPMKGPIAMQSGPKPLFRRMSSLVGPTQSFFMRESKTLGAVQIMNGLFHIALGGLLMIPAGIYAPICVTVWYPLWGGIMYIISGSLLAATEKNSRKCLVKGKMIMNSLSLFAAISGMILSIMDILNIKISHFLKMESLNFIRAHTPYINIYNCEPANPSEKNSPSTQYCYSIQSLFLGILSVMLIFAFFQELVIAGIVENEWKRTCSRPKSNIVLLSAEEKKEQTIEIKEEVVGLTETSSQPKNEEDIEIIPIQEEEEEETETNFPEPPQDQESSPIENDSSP

- apoptosis induction, fold over untreated, Raji B-cells; 5 µM Fab′-MORF1 + P-MORF2/v3 (fold compared to untreated): 7
- apoptosis of Raji B-cells, P-MORF2/v10 against P-MORF2/v3 (0.5 µM Fab′, MORF1:MORF2 = 1:1 or 1:10) (fold against P-MORF2/v3): 2
- apoptotic cells, annexin V/PI staining, Raji B-cells; 1 µM Fab′-MORF1 and equimolar P-MORF2/v3: 40%
- apoptotic cells, fold over untreated, annexin V/PI staining, Raji B-cells; 1 µM Fab′-MORF1 and equimolar P-MORF2/v3 (fold compared to untreated): > 4
- apoptotic index (%), Annexin V/PI binding assay, Raji B-cells, 48 h; consecutive Fab′-MORF1 then Copolymer-MORF2, 0.5 µM, valence = 10, MORF1:MORF2 1:1: 50%
- apoptotic index (%), Annexin V/PI binding assay, Raji B-cells, 48 h; consecutive Fab′-MORF1 then Copolymer-MORF2, 1 µM, valence = 3, MORF1:MORF2 1:1: 37%
Substance: Fab′-MORF1 conjugate (Fab′ fragment of the mouse anti-human CD20 IgG2a mAb 1F5 tethered to the 3′ end of morpholino MORF1 via a thioether bond)
